Tested on: peptide library, one residue held at a place counted from the S/T acceptor
Assay: relative phosphorylation of the sub-library (ratio to the mean residue at this position); higher = residue favoured
Conditions: human
How it was run: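 In 384-well plates, purified recombinant kinases (human or orthologue constructs) were incubated for 90 min under kinase-specific conditions with 50 μM biotinylated degenerate peptide sub-libraries and 50 μM ATP spiked with γ-32P-ATP. Each sub-library fixed a single residue at one position around a central Ser/Thr. Relative sub-library phosphorylation, measured by phosphorimaging and densitometry of streptavidin membrane spots, is given as a ratio to the mean residue at that position.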

Sequence of NEK8, construct: aa1-322 (Q86SG6 1-322, looked up): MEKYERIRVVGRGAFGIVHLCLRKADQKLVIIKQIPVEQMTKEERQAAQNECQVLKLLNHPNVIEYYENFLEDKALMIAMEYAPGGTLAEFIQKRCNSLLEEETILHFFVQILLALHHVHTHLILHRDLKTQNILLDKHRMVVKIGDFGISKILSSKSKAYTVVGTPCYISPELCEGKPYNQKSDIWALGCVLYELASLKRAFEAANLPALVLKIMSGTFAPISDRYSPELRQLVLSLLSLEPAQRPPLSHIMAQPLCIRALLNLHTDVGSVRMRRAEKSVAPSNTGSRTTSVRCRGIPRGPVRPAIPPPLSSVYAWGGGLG
Sequence of MYLK2, construct: Full length (Q9H1R3 whole entry, looked up): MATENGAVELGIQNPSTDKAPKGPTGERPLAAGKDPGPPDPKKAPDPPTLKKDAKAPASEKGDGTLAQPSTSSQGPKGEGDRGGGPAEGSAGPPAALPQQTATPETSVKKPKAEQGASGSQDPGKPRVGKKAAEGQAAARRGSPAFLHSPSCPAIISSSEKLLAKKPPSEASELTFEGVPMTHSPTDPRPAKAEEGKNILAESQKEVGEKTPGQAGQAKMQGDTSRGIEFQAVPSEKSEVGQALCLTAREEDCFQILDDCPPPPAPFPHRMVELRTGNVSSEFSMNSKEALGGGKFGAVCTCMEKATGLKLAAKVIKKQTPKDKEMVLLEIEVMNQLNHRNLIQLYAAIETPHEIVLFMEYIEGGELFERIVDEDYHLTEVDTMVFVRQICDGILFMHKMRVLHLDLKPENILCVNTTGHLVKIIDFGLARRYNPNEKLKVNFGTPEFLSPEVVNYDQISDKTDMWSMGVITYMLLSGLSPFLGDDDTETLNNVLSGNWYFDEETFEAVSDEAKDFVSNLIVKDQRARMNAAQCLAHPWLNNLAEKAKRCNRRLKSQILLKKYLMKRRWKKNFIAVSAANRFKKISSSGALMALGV

MKNK2, construct: Full length (from UniProt Q9HBH9)
relative phosphorylation
Conditions | at +1 | at +2 | at +3 | at +4 | at -1 | at -2 | at -3 | at -4 | at -5
A fixed | 0.742 | 1 | 0.937 | 0.945 | 1.12 | 0.903 | 0.8 | 1.28 | 1.23
D fixed | 0.22 | 0.453 | 0.406 | 0.728 | 0.37 | 0.24 | 0.239 | 0.284 | 0.221
E fixed | 0.385 | 0.465 | 0.433 | 0.79 | 0.369 | 0.24 | 0.449 | 0.359 | 0.272
F fixed | 1.36 | 0.807 | 0.936 | 0.895 | 0.555 | 0.439 | 0.453 | 0.721 | 0.949
G fixed | 0.506 | 0.739 | 1.58 | 1.08 | 1.04 | 0.958 | 1.53 | 1.54 | 1.05
H fixed | 1.06 | 1.71 | 1.32 | 1.22 | 1.24 | 0.874 | 1.07 | 1.02 | 0.898
I fixed | 1.35 | 0.818 | 0.664 | 0.756 | 0.417 | 0.368 | 0.365 | 0.716 | 1.11
K fixed | 1.02 | 0.875 | 1.89 | 1.62 | 3.14 | 2.06 | 3.1 | 1.75 | 1.4
L fixed | 1.17 | 0.781 | 0.923 | 0.745 | 0.741 | 0.421 | 0.439 | 0.909 | 1.47
M fixed | 1.73 | 0.915 | 0.942 | 0.849 | 0.887 | 0.427 | 0.617 | 0.898 | 0.976
N fixed | 0.667 | 0.797 | 0.76 | 0.94 | 0.96 | 0.956 | 0.847 | 0.911 | 0.648
P fixed | 0.24 | 0.44 | 0.931 | 1.21 | 0.284 | 0.571 | 1.48 | 1.58 | 1.49
Q fixed | 1.59 | 0.904 | 1.1 | 1.13 | 1.2 | 0.835 | 0.957 | 0.884 | 0.767
R fixed | 1.19 | 1.29 | 1.34 | 1.05 | 2.77 | 6.1 | 3.21 | 1.79 | 1.23
V fixed | 1.19 | 0.981 | 0.703 | 0.861 | 0.566 | 0.5 | 0.401 | 0.749 | 1.47
W fixed | 1.17 | 1.39 | 0.974 | 1.16 | 0.531 | 0.491 | 0.475 | 0.713 | 0.876
Y fixed | 1.41 | 2.63 | 1.15 | 1.03 | 0.818 | 0.615 | 0.574 | 0.899 | 0.942
pThr fixed | 0.649 | 0.492 | 0.516 | 0.736 | 0.203 | 0.304 | 0.47 | 0.562 | 0.572
pTyr fixed | 0.783 | 0.714 | 0.604 | 0.782 | 0.285 | 0.356 | 0.568 | 0.647 | 0.642

MYLK2, construct: Full length (from UniProt Q9H1R3)
relative phosphorylation
Conditions | at +1 | at +2 | at +3 | at +4 | at -1 | at -2 | at -3 | at -4 | at -5
A fixed | 1.17 | 0.898 | 0.72 | 1.02 | 1 | 1.55 | 0.879 | 1.34 | 1.37
D fixed | 0.541 | 0.852 | 1.08 | 1.07 | 0.654 | 0.423 | 0.467 | 0.847 | 0.683
E fixed | 0.705 | 1.5 | 0.72 | 1.38 | 0.659 | 0.454 | 0.605 | 1.03 | 0.644
F fixed | 0.621 | 1.42 | 1.62 | 0.804 | 0.486 | 0.461 | 0.464 | 0.852 | 0.932
G fixed | 1.19 | 0.696 | 1.03 | 0.936 | 0.922 | 1.37 | 1.45 | 1.46 | 1.5
H fixed | 0.988 | 1.02 | 0.825 | 0.938 | 1.49 | 1.08 | 1.02 | 0.942 | 1.1
I fixed | 0.784 | 1.28 | 1.37 | 1.36 | 0.556 | 0.471 | 0.412 | 0.639 | 0.657
K fixed | 1.5 | 0.664 | 0.482 | 0.898 | 1.89 | 1.44 | 2.17 | 1.03 | 1.19
L fixed | 0.785 | 1.15 | 2.01 | 1.17 | 0.885 | 0.461 | 0.421 | 0.702 | 0.723
M fixed | 1.27 | 1.06 | 1.13 | 0.925 | 0.891 | 0.512 | 0.474 | 0.836 | 0.739
N fixed | 0.945 | 0.783 | 0.84 | 0.736 | 1.41 | 0.819 | 0.85 | 0.894 | 0.884
P fixed | 0.323 | 0.785 | 0.8 | 1.36 | 1.37 | 1 | 1.35 | 1.53 | 1.62
Q fixed | 1.81 | 0.757 | 0.557 | 0.973 | 1.35 | 0.806 | 0.894 | 1.01 | 0.834
R fixed | 1.68 | 0.575 | 0.525 | 0.58 | 1.13 | 4.52 | 3.77 | 1.28 | 0.929
V fixed | 1.07 | 1.21 | 0.919 | 1.23 | 0.688 | 0.558 | 0.477 | 0.753 | 0.853
W fixed | 0.902 | 1.31 | 1.6 | 0.903 | 0.658 | 0.527 | 0.691 | 1.01 | 1.25
Y fixed | 0.721 | 1.04 | 0.78 | 0.715 | 0.958 | 0.529 | 0.6 | 0.843 | 1.08
pThr fixed | 1.71 | 1.59 | 0.794 | 1.43 | 0.612 | 0.958 | 0.847 | 1.05 | 1.06
pTyr fixed | 0.726 | 1.47 | 0.977 | 1.37 | 0.886 | 0.674 | 0.819 | 0.934 | 0.84

NEK8, construct: aa1-322 (from UniProt Q86SG6)
relative phosphorylation
Conditions | at +1 | at +2 | at +3 | at +4 | at -1 | at -2 | at -3 | at -4 | at -5
A fixed | 0.671 | 0.695 | 0.727 | 0.752 | 0.875 | 0.751 | 0.814 | 0.847 | 0.971
D fixed | 0.407 | 0.332 | 0.655 | 0.562 | 1.08 | 1.53 | 0.918 | 1.68 | 1.61
E fixed | 0.37 | 0.28 | 0.459 | 0.527 | 1.16 | 1.09 | 0.764 | 1.25 | 1.09
F fixed | 1.97 | 1.12 | 1.7 | 1.11 | 0.777 | 0.882 | 0.995 | 0.89 | 1.02
G fixed | 0.654 | 0.656 | 0.992 | 0.944 | 0.602 | 1.09 | 0.975 | 0.936 | 1.05
H fixed | 1 | 1.01 | 1.16 | 0.97 | 0.967 | 0.963 | 1.05 | 0.983 | 1.04
I fixed | 0.826 | 0.761 | 0.74 | 0.815 | 0.555 | 0.679 | 0.69 | 0.606 | 0.658
K fixed | 0.933 | 2.05 | 1.4 | 1.81 | 1.5 | 0.755 | 0.799 | 0.918 | 1.08
L fixed | 1.06 | 0.845 | 1.04 | 0.978 | 1.11 | 1.25 | 1.56 | 0.792 | 0.771
M fixed | 2.03 | 0.89 | 0.95 | 0.97 | 1.36 | 0.959 | 1.52 | 0.858 | 0.76
N fixed | 0.945 | 0.841 | 1.05 | 1.02 | 1.11 | 1 | 0.837 | 1.09 | 1.06
P fixed | 0.239 | 0.525 | 0.826 | 1.32 | 0.433 | 0.485 | 0.878 | 0.926 | 1.11
Q fixed | 1.33 | 0.836 | 0.861 | 1.12 | 1.34 | 0.75 | 0.924 | 0.839 | 0.935
R fixed | 1.34 | 3.13 | 1.54 | 1.54 | 1.72 | 1.59 | 1.84 | 0.966 | 0.956
V fixed | 0.7 | 0.798 | 0.628 | 0.66 | 0.63 | 0.625 | 0.465 | 0.597 | 0.712
W fixed | 1.29 | 0.948 | 1.26 | 1.03 | 0.775 | 1.33 | 1.05 | 2.01 | 1.3
Y fixed | 1.24 | 1.28 | 1.02 | 0.86 | 0.999 | 1.26 | 0.924 | 0.805 | 0.871
pThr fixed | 0.717 | 0.574 | 0.612 | 0.672 | 0.593 | 1.01 | 1.17 | 1.13 | 1.4
pTyr fixed | 0.64 | 0.439 | 0.819 | 0.583 | 1.42 | 1.66 | 1.3 | 1.05 | 1.38

— the supplement of paper PMC9876800
